Measurements reported in patent publication US20220362357A1, “Synergistic Combinations of Amino Acid Depletion Agent Sensitizers (AADAS) and Amino Acid Depletion Agents (AADA), and Therapeutic Methods of Use Thereof” (STICHTING RADBOUD UNIVERSITAIR MEDISCH CENTRUM, priority 2018, published 2022).

Assays:
Test in all cases: PDX ALL cells co-cultured on hTERT MSCs, ASNase x ibrutinib dilution matrix, microscopy
Format in all cases: cell-based, human
[1] = test system: PDX m764; conditions: m764 (3 d), ibrutinib B0=0 to B9=100
Procedure: (§1) After 2-4 months these mice developed full blown leukemia with an immunophenotype and genetic composition that in the large majority of cases is identical to the original material at the time of injection.
(§2) Briefly, hTERT immortalized MSCs were seeded in either a 384 wells format (microscopy) or a 96 wells format (7AAD staining) and allowed to settle for 24 hours prior to the addition of ALL xenografts. […] After 3 and 7 days of incubation, cell death was analyzed using microscopy using live cells staining or flowcytometry using 7AAD to discriminate between live or dead cells.

[2] = test system: PDX m1717; conditions: m1717 (3 d), ibrutinib B0=0 to B9=100
Procedure: as §1, §2

[3] = test system: PDX m4136; conditions: m4136 (3 d), ibrutinib B0=0 to B9=100
Procedure: as §1, §2

[4] = test system: PDX m1338; conditions: m1338 (7 d), ibrutinib B0=0 to B9=100
Procedure: as §1, §2

[5] = test system: PDX m1095; conditions: m1095 (3 d), ibrutinib B0=0 to B9=100
Procedure: as §1, §2

[6] = test system: PDX m3657; conditions: m3657 (7 d), ibrutinib B0=0 to B9=100
Procedure: as §1, §2

[7] = test system: PDX m3810; conditions: m3810 (3 d), ibrutinib B0=0 to B9=100
Procedure: as §1, §2

B1: ASNase: native E. coli ASNase (NCBI WP_000394140.1), used in the in vitro studies (protein, UniProt P00805 23-348, looked up)
L-asparaginase 2: LPNITILATGGTIAGGGDSATKSNYTVGKVGVENLVNAVPQLKDIANVKGEQVVNIGSQDMNDNVWLTLAKKINTDCDKTDGFVITHGTDTMEETAYFLDLTVKCDKPVVMVGAMRPSTSMSADGPFNLYNAVVTAADKASANRGVLVVMNDTVLDGRDVTKTNTTDVATFKSVNYGPLGYIHNGKIDYQRTPARKHTSDTPFDVSKLNELPKVGIVYNYANASDLPAKALVDAGYDGIVSAGVGNGNLYKSVFDTLATAAKTGTAVVRSSRVPTGATTQDAEVDDAKYGFVASGTLNPQKARVLLQLALTQTKDPQQIQQIFNQY
**Q.** Which “live cells by automated microscopy (table names no quantity)” value (from here on “live cells … (table names no quantity)”) ([1]; ASNase A1=0.01) does the source give for B1 here?
**A.** Its value is 546.

**Q.** What about the “live cells … (table names no quantity)” value ([1]; ASNase A2=0.03) of the same molecule?
**A.** The value was 1126.

**Q.** What about the “live cells … (table names no quantity)” value ([1]; ASNase A3=0.1) of the same molecule?
**A.** Its value is 109.

**Q.** What about the “live cells … (table names no quantity)” value ([1]; ASNase A4=0.3) of the same molecule?
**A.** Its value is 250.

**Q.** And the “live cells … (table names no quantity)” value ([1]; ASNase A5=1)?
**A.** The value was 915.

**Q.** What about the “live cells … (table names no quantity)” value ([1]; ASNase A6=3) of the same molecule?
**A.** Its value is 887.

**Q.** And the “live cells … (table names no quantity)” value ([1]; ASNase A7=10)?
**A.** The value was 594.

**Q.** And the “live cells … (table names no quantity)” value ([1]; ASNase A8=32)?
**A.** The value was 157.

**Q.** What about the “live cells … (table names no quantity)” value ([1]; ASNase A9 (A=100)) of the same molecule?
**A.** Its value is 2.

**Q.** And the “live cells … (table names no quantity)” value ([2]; ASNase A1=0.01)?
**A.** Its value is 5977.

**Q.** And the “live cells … (table names no quantity)” value ([2]; ASNase A2=0.03)?
**A.** The value was 6674.

**Q.** And the “live cells … (table names no quantity)” value ([2]; ASNase A3=0.1)?
**A.** The value was 5155.

**Q.** And the “live cells … (table names no quantity)” value ([2]; ASNase A4=0.3)?
**A.** The value was 6700.

**Q.** What about the “live cells … (table names no quantity)” value ([2]; ASNase A5=1) of the same molecule?
**A.** The value was 6589.

**Q.** What about the “live cells … (table names no quantity)” value ([2]; ASNase A6=3) of the same molecule?
**A.** The value was 5782.

**Q.** What about the “live cells … (table names no quantity)” value ([2]; ASNase A7=10) of the same molecule?
**A.** Its value is 3762.

**Q.** What about the “live cells … (table names no quantity)” value ([2]; ASNase A8=32) of the same molecule?
**A.** Its value is 571.

**Q.** What about the “live cells … (table names no quantity)” value ([2]; ASNase A9 (A=100)) of the same molecule?
**A.** The value was 24.

**Q.** And the “live cells … (table names no quantity)” value ([3]; ASNase A1=0.01)?
**A.** The value was 1992.

**Q.** And the “live cells … (table names no quantity)” value ([3]; ASNase A2=0.03)?
**A.** Its value is 1998.

**Q.** What about the “live cells … (table names no quantity)” value ([3]; ASNase A3=0.1) of the same molecule?
**A.** The value was 1980.

**Q.** What about the “live cells … (table names no quantity)” value ([3]; ASNase A4=0.3) of the same molecule?
**A.** Its value is 1892.

**Q.** And the “live cells … (table names no quantity)” value ([3]; ASNase A5=1)?
**A.** The value was 2157.

**Q.** And the “live cells … (table names no quantity)” value ([3]; ASNase A6=3)?
**A.** The value was 2652.

**Q.** What about the “live cells … (table names no quantity)” value ([3]; ASNase A7=10) of the same molecule?
**A.** Its value is 2136.

**Q.** What about the “live cells … (table names no quantity)” value ([3]; ASNase A8=32) of the same molecule?
**A.** Its value is 2172.

**Q.** What about the “live cells … (table names no quantity)” value ([3]; ASNase A9 (A=100)) of the same molecule?
**A.** Its value is 39.

**Q.** And the “live cells … (table names no quantity)” value ([4]; ASNase A1=0.01)?
**A.** The value was 2207.

**Q.** What about the “live cells … (table names no quantity)” value ([4]; ASNase A2=0.03) of the same molecule?
**A.** Its value is 3174.

**Q.** What about the “live cells … (table names no quantity)” value ([4]; ASNase A3=0.1) of the same molecule?
**A.** Its value is 2916.

**Q.** And the “live cells … (table names no quantity)” value ([4]; ASNase A4=0.3)?
**A.** The value was 2372.

**Q.** What about the “live cells … (table names no quantity)” value ([4]; ASNase A5=1) of the same molecule?
**A.** Its value is 2788.

**Q.** What about the “live cells … (table names no quantity)” value ([4]; ASNase A6=3) of the same molecule?
**A.** Its value is 2166.

**Q.** And the “live cells … (table names no quantity)” value ([4]; ASNase A7=10)?
**A.** Its value is 1468.

**Q.** And the “live cells … (table names no quantity)” value ([4]; ASNase A8=32)?
**A.** Its value is 292.

**Q.** What about the “live cells … (table names no quantity)” value ([4]; ASNase A9 (A=100)) of the same molecule?
**A.** The value was 1.

**Q.** And the “live cells … (table names no quantity)” value ([5]; ASNase A1=0.01)?
**A.** Its value is 2935.

**Q.** And the “live cells … (table names no quantity)” value ([5]; ASNase A2=0.03)?
**A.** Its value is 2914.

**Q.** What about the “live cells … (table names no quantity)” value ([5]; ASNase A3=0.1) of the same molecule?
**A.** Its value is 3089.

**Q.** What about the “live cells … (table names no quantity)” value ([5]; ASNase A4=0.3) of the same molecule?
**A.** Its value is 3205.

**Q.** And the “live cells … (table names no quantity)” value ([5]; ASNase A5=1)?
**A.** The value was 2579.

**Q.** What about the “live cells … (table names no quantity)” value ([5]; ASNase A6=3) of the same molecule?
**A.** Its value is 549.

**Q.** What about the “live cells … (table names no quantity)” value ([5]; ASNase A7=10) of the same molecule?
**A.** Its value is 2033.

**Q.** What about the “live cells … (table names no quantity)” value ([5]; ASNase A8=32) of the same molecule?
**A.** The value was 238.

**Q.** What about the “live cells … (table names no quantity)” value ([5]; ASNase A9 (A=100)) of the same molecule?
**A.** Its value is 30.

**Q.** What about the “live cells … (table names no quantity)” value ([6]; ASNase A1=0.01) of the same molecule?
**A.** The value was 3562.

**Q.** What about the “live cells … (table names no quantity)” value ([6]; ASNase A2=0.03) of the same molecule?
**A.** Its value is 4473.

**Q.** What about the “live cells … (table names no quantity)” value ([6]; ASNase A3=0.1) of the same molecule?
**A.** Its value is 4173.

**Q.** What about the “live cells … (table names no quantity)” value ([6]; ASNase A4=0.3) of the same molecule?
**A.** The value was 1159.

**Q.** What about the “live cells … (table names no quantity)” value ([6]; ASNase A5=1) of the same molecule?
**A.** The value was 3935.

**Q.** And the “live cells … (table names no quantity)” value ([6]; ASNase A6=3)?
**A.** Its value is 3317.

**Q.** And the “live cells … (table names no quantity)” value ([6]; ASNase A7=10)?
**A.** Its value is 4220.

**Q.** What about the “live cells … (table names no quantity)” value ([6]; ASNase A8=32) of the same molecule?
**A.** Its value is 723.

**Q.** And the “live cells … (table names no quantity)” value ([6]; ASNase A9 (A=100))?
**A.** Its value is 17.

**Q.** And the “live cells … (table names no quantity)” value ([7]; ASNase A1=0.01)?
**A.** Its value is 1232.

**Q.** What about the “live cells … (table names no quantity)” value ([7]; ASNase A2=0.03) of the same molecule?
**A.** The value was 2209.

**Q.** And the “live cells … (table names no quantity)” value ([7]; ASNase A3=0.1)?
**A.** The value was 1405.

**Q.** And the “live cells … (table names no quantity)” value ([7]; ASNase A4=0.3)?
**A.** The value was 1982.
